These results are taken from article PMC5645109 (PLoS ONE, 2017).

The target of this assay is T1, Torpedo nAChR (extract from the electric organ of Torpedo californica) (Tetronarce californica (Torpedo …, UniProt P02710;P02712;P02714;P02718)).
T1 construct: acetylcholine receptor α-subunit, Torpedo californica; acetylcholine receptor β-subunit, Torpedo californica; acetylcholine receptor γ-subunit, Torpedo californica; acetylcholine receptor δ-subunit, Torpedo californica; also called torpedo AChR antigen; source: extract of the electric organ of Torpedo californica (gift, University of Nagasaki); copies: + + +
Description: radio immunoprecipitation assay; extract of the electric organ of Torpedo californica or extract of rat sciatic nerve as antigen; relative binding affinity; method of ref. 54. The note with it: one partner purified.

T1 sequence (P02718 whole entry, looked up, chain 1 of 4): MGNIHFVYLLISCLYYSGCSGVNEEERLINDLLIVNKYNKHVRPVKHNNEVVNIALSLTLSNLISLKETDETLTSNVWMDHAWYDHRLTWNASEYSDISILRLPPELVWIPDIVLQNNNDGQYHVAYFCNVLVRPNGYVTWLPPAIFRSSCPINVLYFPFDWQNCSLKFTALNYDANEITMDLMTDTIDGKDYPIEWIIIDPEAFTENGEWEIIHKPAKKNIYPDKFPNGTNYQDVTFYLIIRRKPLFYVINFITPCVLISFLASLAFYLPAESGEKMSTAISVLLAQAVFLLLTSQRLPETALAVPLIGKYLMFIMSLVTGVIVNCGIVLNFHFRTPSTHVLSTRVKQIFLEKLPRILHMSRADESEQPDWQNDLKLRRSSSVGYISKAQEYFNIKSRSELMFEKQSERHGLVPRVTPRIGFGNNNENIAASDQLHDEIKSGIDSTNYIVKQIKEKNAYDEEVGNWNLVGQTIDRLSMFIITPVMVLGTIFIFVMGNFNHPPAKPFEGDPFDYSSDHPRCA
T1 sequence (P02714 whole entry, looked up, chain 2 of 4): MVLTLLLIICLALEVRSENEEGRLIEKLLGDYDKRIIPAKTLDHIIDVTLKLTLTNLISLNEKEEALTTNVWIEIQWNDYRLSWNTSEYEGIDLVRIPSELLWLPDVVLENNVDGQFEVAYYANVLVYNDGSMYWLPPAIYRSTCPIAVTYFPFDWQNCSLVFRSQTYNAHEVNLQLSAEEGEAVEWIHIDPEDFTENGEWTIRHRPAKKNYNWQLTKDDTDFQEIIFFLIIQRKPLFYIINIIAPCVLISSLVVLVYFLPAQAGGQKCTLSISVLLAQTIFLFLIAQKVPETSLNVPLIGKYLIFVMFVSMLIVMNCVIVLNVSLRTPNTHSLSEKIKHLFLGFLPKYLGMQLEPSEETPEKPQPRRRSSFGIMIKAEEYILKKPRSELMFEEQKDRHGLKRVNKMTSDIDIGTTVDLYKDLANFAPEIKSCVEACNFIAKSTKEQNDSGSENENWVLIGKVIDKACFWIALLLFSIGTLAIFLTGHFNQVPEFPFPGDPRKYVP
T1 sequence (P02712 whole entry, looked up, chain 3 of 4): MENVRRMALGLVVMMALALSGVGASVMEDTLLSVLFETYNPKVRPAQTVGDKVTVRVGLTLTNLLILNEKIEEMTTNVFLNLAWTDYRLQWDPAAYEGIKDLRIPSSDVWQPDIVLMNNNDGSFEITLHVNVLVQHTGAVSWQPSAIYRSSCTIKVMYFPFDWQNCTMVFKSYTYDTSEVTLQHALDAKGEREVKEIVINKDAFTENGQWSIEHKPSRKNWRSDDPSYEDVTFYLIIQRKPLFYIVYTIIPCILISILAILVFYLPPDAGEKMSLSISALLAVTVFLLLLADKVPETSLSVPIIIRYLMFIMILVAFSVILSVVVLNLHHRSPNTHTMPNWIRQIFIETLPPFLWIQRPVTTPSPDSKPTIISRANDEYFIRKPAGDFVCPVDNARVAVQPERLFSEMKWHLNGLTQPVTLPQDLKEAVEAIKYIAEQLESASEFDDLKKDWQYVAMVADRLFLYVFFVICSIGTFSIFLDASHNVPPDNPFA
T1 sequence (P02710 whole entry, looked up, chain 4 of 4): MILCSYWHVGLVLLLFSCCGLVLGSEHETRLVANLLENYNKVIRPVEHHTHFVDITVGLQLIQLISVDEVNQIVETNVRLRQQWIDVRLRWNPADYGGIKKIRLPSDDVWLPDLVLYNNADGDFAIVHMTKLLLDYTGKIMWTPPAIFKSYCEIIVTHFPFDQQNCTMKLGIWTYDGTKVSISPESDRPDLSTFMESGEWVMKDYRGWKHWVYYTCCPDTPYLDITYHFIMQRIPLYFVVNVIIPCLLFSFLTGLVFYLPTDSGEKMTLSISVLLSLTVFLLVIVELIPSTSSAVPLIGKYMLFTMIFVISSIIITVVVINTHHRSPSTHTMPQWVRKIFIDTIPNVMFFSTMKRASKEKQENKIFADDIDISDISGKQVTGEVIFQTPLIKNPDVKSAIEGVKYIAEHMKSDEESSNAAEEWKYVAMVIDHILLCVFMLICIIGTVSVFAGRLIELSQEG

B1: rat mAb35, anti-nAChR main immunogenic region antibody (rat IgG1) (antibody, V domains shown)
VH: EVQLQESGPGLVQPSETLSLTCTVSGFSLTSYSVSWLRQPSGKGPEWMGRMWDDGGTVYNSGLKSRLSISRDTSKNQVFLKMNSLQTDDTGTYYCTRDERIRAINWFAYWGQGTLVTVSS
VL: DIVITQSPSLLSASVGDRVTLTCKGSQNIDNYLAWYQQKLGEAPKLLIYKTNSLQTGIPSRFSGSGSGTDYTLTISSLHSEDLATYYCYQYINGYTFGTGTKLELK
notes: heavy chain of rat mAb35 (rat IgG1); light chain of rat mAb35; the hybridoma clone is named for the cDNA; also called mAb35 (rat); source: rat Hybridoma
B1: the binding result is “binds”.
